Measurements from paper PMC4216188.

Target: I53A FLAG-Pen-2 (human) (UniProt Q9NZ42)
Experiment: co-IP

Sequence of UniProt Q9NZ42 (Q9NZ42 whole entry I53A): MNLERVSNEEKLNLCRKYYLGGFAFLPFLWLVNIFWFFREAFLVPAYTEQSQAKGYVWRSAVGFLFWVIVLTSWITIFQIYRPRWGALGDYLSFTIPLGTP

PS1-CTF associated with immunoprecipitated Pen-2, percent of wt: < 40 % of wt
Substance: presenilin 1 C-terminal fragment (PS1-CTF) (domain or fragment)
